Source: US20110229922

T1: TMEM 27 A FRET peptide RINNAFFLND
T1 sequence: RINNAFFLND

T2: MR121 peptide C QTLEFLKIP W
T2 sequence: QTLEFLKIP

T3: MR121 peptide C QTLEFLKIPS W
T3 sequence: QTLEFLKIPS

T4: MR121 peptide C QTLEFLKI W
T4 sequence: QTLEFLKI

T5: APP WT FRET peptide SEVKMDAEFR
T5 sequence: SEVKMDAEFR

T6: APP SW FRET peptide SEVNLDAEFR
T6 sequence: SEVNLDAEFR

T7: MR121 peptide C QELEFLKI W
T7 sequence: QELEFLKI

T8: Amylin FRET peptide GSNTYGKRNA
T8 sequence: GSNTYGKRNA

B1: BACE2 enzyme ectodomain (enzyme)
chain: AAPELAPAPFTLPLRVAAATNRVVAPTPGPGTPAERHADGLALALEPALASPAGAANFLAMVDNLQGDSGRGYYLEMLIGTPPQKLQILVDTGSSNFAVAGTPHSYIDTYFDTERSSTYRSKGFDVTVKYTQGSWTGFVGEDLVTIPKGFNTSFLVNIATIFESENFFLPGIKWNGILGLAYATLAKPSSSLETFFDSLVTQANIPNVFSMQMCGAGLPVAGSGTNGGSLVLGGIEPSLYKGDIWYTPIKEEWYYQIEILKLEIGGQSLNLDCREYNADKAIVDSGTTLLRLPQKVFDAVVEAVARASLIPEFSDGFWTGSQLACWTNSETPWSYFPKISIYLRDENSSRSFRITILPQLYIQPMMGAGLNYECYRFGISPSTNALVIGATVMEGFYVIFDRAQKRVGFAASPCAEIAGAAVSEISGPFSTEDVASNCVPAQSLSE
modifications: N-terminal Met
B2: BACE1 (protein)
chain: TQHGIRLPLRSGLGGAPLGLRLPRETDEEPEEPGRRGSFVEMVDNLRGKSGQGYYVEMTVGSPPQTLNILVDTGSSNFAVGAAPHPFLHRYYQRQLSSTYRDLRKGVYVPYTQGKWEGELGTDLVSIPHGPNVTVRANIAAITESDKFFINGSNWEGILGLAYAEIARPDDSLEPFFDSLVKQTHVPNLFSLQLCGAGFPLNQSEVLASVGGSMIIGGIDHSLYTGSLWYTPIRREWYYEVIIVRVEINGQDLKMDCKEYNYDKSIVDSGTTNLRLPKKVFEAAVKSIKAASSTEKFPDGFWLGEQLVCWQAGTTPWNIFPVISLYLMGEVTNQSFRITILPQQYLRPVEDVATSQDDCYKFAISQSSTGTVMGAVIMEGFYVVFDRARKRIGFAVSACHVHDEFRTAAVEGPFVTLDMEDCGYNIPQTDESTLMTIAY

Legend:
[1] = test system: T1, TMEM 27 A FRET peptide RINNAFFLND
[2] = test system: T2, MR121 peptide C QTLEFLKIP W
[3] = test system: MR121 peptide C TLEFLKI W
[4] = test system: dabsyl-QTLEFLKIPS-LucY (TMEM27 FRET peptide)
[5] = test system: T3, MR121 peptide C QTLEFLKIPS W
[6] = test system: T4, MR121 peptide C QTLEFLKI W
[7] = test system: T5, APP WT FRET peptide SEVKMDAEFR
[8] = test system: dabsyl-NSLEFLGIQP-lucifer yellow (ACE2 FRET peptide)
[9] = test system: T6, APP SW FRET peptide SEVNLDAEFR
[10] = test system: T7, MR121 peptide C QELEFLKI W
[11] = test system: T8, Amylin FRET peptide GSNTYGKRNA
[12] = test system: MR121 peptide C QTLEFLK W
[13] = biological target: dabsyl-…-LucY (TMEM27 FRET peptide)

| Protein | FRET peptide cleavage efficiency [1] | Relative activity (MR121 peptide C QTLEFL W) | Relative activity [2] | Relative activity [3] | FRET peptide cleavage activity [4] | Relative activity (MR121 peptide C LEFLKI W) | Relative activity [5] | Relative activity [6] | FRET peptide cleavage efficiency [7] | FRET peptide cleavage efficiency [8] | FRET peptide cleavage efficiency [9] | Relative activity [10] | Relative activity (MR121 peptide C QTLEF W) | FRET peptide cleavage efficiency [11] | Relative activity [12] | FRET peptide cleavage activity [13] |
| --- | --- | --- | --- | --- | --- | --- | --- | --- | --- | --- | --- | --- | --- | --- | --- | --- |
| B1 | cleaved less efficiently | 32 | 75 | 28 | BACE2 had a high activity against this sequence | 24 | 91 | 96 | cleaved less efficiently | cleaved by BACE2 with an efficiency greater than that of the TMEM27 substrate | cleaved less efficiently | 100 | 21 | cleaved less efficiently | 62 | – |
| B2 | – | – | – | – | – | – | – | – | – | – | – | – | – | – | – | BACE1 had insignificant activity against this peptide |
